# According to PMC11187106, “Master corepressor inactivation through multivalent SLiM-induced polymerization mediated by the oncogene suppressor RAI2” (Nature Communications, 2024):
# Changes are numbered by the printed parent chain.
# B1: RAI2(WT, 303-530) (domain or fragment)
# chain: SRHTVIKMGSENEALDLSMKSVPWLKAGEVSPPIFQEDAALDLSVAAHRKSEPPPETLYDSGASVDSSGHTVMEKLPSGMEISFAPATSHEAPAMMDSHISSSDAATEMLSQPNHPSGEVKAENNIEMVGESQAAKVIVSVEDAVPTIFCGKIKGLSGVSTKNFSFKREDSVLQGYDINSQGEESMGNAEPLRKPIKNRSIKLKKVNSQEIHMLPIKKQRLATFFPRK
# B2: RAI2(WT, 303–530) (domain or fragment)
# chain: B1 chain
# notes: source: E. coli BL21 DE3 LOBSTR, purified (HisTrap, TEV cleavage, Superdex 75); not shown: His6, N-terminal, cleaved
# B3: RAI2(WT, 303-362) (domain or fragment)
# chain: SRHTVIKMGSENEALDLSMKSVPWLKAGEVSPPIFQEDAALDLSVAAHRKSEPPPETLYD
# notes: this construct came from the same vector (pETGB1a, TEV site) and may carry the same residues; source: E. coli BL21 DE3 LOBSTR, purified (HisTrap, TEV cleavage, Superdex 75); not shown: His6, N-terminal, cleaved
# B4: RAI2(WT, 303-362) (domain or fragment)
# chain: B3 chain
# notes: Cloned in pETGB1a with a TEV site; also called Retinoic Acid-Induced 2; source: E. coli BL21 DE3 LOBSTR, purified (HisTrap, TEV cleavage, Superdex 75); not shown: His6, N-terminal, cleaved
# B5: RAI2(WT, 303–362) (domain or fragment, human, UniProt Q9Y5P3 303-362, looked up)
# chain: B3 chain
# notes: 15N/13C-labelled for NMR; A residue of the TEV site (ENLYFQG) may remain at the N-terminus; PDB 8ARI holds the Δ11 variant of the same limits; source: E. coli BL21 DE3 LOBSTR, purified (HisTrap, TEV cleavage, Superdex 75); not shown: His6, N-terminal, cleaved
# B6: RAI2(M2, 303-362) (domain or fragment)
# chain: B3 chain with L43A, S44A
# notes: as for B2
# B7: RAI2(M1, 303–362) (domain or fragment)
# chain: B3 chain with L17A, S18A
# notes: 15N-labelled for NMR; PDB 8ARI holds the Δ11 variant of the same limits; source: E. coli BL21 DE3 LOBSTR, purified (HisTrap, TEV cleavage, Superdex 75); not shown: His6, N-terminal, cleaved
# B8: RAI2(M1, 303-362) (domain or fragment)
# chain: B3 chain with L17A, S18A
# notes: as for B2
# B9: RAI2(M2, 303-362) (domain or fragment)
# chain: B3 chain with L43A, S44A
# notes: as for B2
# B10: RAI2(M1, 303-362) (domain or fragment)
# chain: B3 chain with L17A, S18A
# notes: as for B2
# B11: RAI2(M2, 303–362) (domain or fragment)
# chain: B3 chain with L43A, S44A
# notes: as for B7
# B12: RAI2(WT, 303-465) (domain or fragment)
# chain: SRHTVIKMGSENEALDLSMKSVPWLKAGEVSPPIFQEDAALDLSVAAHRKSEPPPETLYDSGASVDSSGHTVMEKLPSGMEISFAPATSHEAPAMMDSHISSSDAATEMLSQPNHPSGEVKAENNIEMVGESQAAKVIVSVEDAVPTIFCGKIKGLSGVSTKN
# notes: this construct came from the same vector and may carry the same residues; source: E. coli BL21 DE3 LOBSTR, purified (HisTrap, TEV cleavage, Superdex 75); not shown: His6, N-terminal, cleaved
# B13: RAI2(M1, 303–465) (domain or fragment)
# chain: B12 chain with L17A, S18A
# notes: PDB 8ATI holds the M2 variant of the same limits; source: E. coli BL21 DE3 LOBSTR, purified (HisTrap, TEV cleavage, Superdex 75); not shown: His6, N-terminal, cleaved
# B14: RAI2(M2, 303–465) (domain or fragment)
# chain: B12 chain with L43A, S44A
# notes: only residues 315-321 (EALDLSM) are seen in the crystal structure; source: E. coli BL21 DE3 LOBSTR, purified (HisTrap, TEV cleavage, Superdex 75); not shown: His6, N-terminal, cleaved
# B15: RAI2(Δ11, 303-362) (domain or fragment, UniProt Q9Y5P3 303-362, looked up)
# chain: SRHTVIKMGSENEALDLSMKSVPWLKAGALDLSVAAHRKSEPPPETLYD
# notes: as for B2
# How the values were obtained:
# Conditions in all cases: both partners purified
# CtBP1(WT, FL) [1] = target: CtBP1(WT, FL) (human, UniProt Q13363 1-440); experiment: ITC; VP-ITC, 25 °C, 50 mM HEPES (pH 7.2), 150 mM NaCl; CtBP in the cell (10 µM for RAI2 M1 or M2, 20 µM for the WT RAI2 constructs), RAI2 in the syringe (100 µM); mean of three independent measurements ± SD
# CtBP1(WT, FL) [2] = target: T1, CtBP1(WT, FL) (human, UniProt Q13363 1-440); experiment: ITC; VP-ITC, 25 °C, 50 mM HEPES (pH 7.2), 150 mM NaCl; CtBP in the cell (10 µM for M1 or M2, 20 µM for WT RAI2 constructs), RAI2 constructs in the syringe (100 µM); mean of three measurements
# CtBP1(WT, FL) [3] = target: CtBP1(WT, FL) (human, UniProt Q13363 1-440); experiment: ITC; VP-ITC, 25 °C, 50 mM HEPES (pH 7.2), 150 mM NaCl; CtBP in the cell (10 µM for RAI2 M1 or M2, 20 µM for the WT RAI2 constructs), RAI2 in the syringe (100 µM); mean of three independent measurements ± SD; remark: listed apart in the source
# CtBP1(K46W) [4] = target: CtBP1(K46W) (human, UniProt Q13363 1-440, K46W); experiment: as above
# CtBP1(WT, FL) [5] = target: CtBP1(WT, FL) (human, UniProt Q13363 1-440); experiment: ITC; VP-ITC, 25 °C, 50 mM HEPES (pH 7.2), 150 mM NaCl; CtBP1 in the cell (20 µM for WT RAI2, 10 µM for M1 or M2), RAI2(303-362) variants 100 µM in the syringe; mean of three independent measurements
# CtBP1(K46W) [6] = target: CtBP1(K46W) (human, UniProt Q13363 1-440, K46W); experiment: ITC; VP-ITC, 25 °C, 50 mM HEPES (pH 7.2), 150 mM NaCl; CtBP in the cell (10 µM for M1 or M2, 20 µM for WT RAI2 constructs), RAI2 constructs in the syringe (100 µM); mean of three measurements
# CtBP1(WT, FL) [7] = target: T1, CtBP1(WT, FL); experiment: SEC; analytical Superose 6 3.2/300 GL, 50 mM HEPES (pH 7.2), 150 mM NaCl; CtBP kept at 100 µM, RAI2 variants titrated at 1:0.1, 1:0.2, 1:0.5, 1:1 and 1:2
binder,measurement,setting,value
B1,Kd,"CtBP1(WT, FL) [1]",1.5 µM
same,stoichiometry N,"CtBP1(WT, FL) [1]",0.34
B2,binding result,"CtBP1(WT, FL) [2]",binds
B3,Kd,"CtBP1(WT, FL) [3]",1.1 µM
same,stoichiometry N,"CtBP1(WT, FL) [3]",0.42
same,Kd,CtBP1(K46W) [4],4.5 µM
same,stoichiometry N,CtBP1(K46W) [4],0.26
B4,Kd,"CtBP1(WT, FL) [5]",1.09 µM
same,stoichiometry N,"CtBP1(WT, FL) [5]",0.42
B5,stoichiometry N,CtBP1(K46W) [6],< 0.3
same,fold change in binding stoichiometry against M1 and M2,"CtBP1(WT, FL) [2]",~2 fold
same,fold increase in binding affinity against M1 and M2,"CtBP1(WT, FL) [2]",5 fold
same,stoichiometry N,"CtBP1(WT, FL) [2]",0.5
B6,Kd,"CtBP1(WT, FL) [5]",3.87 µM
same,stoichiometry N,"CtBP1(WT, FL) [5]",0.836
B7,Kd,"CtBP1(WT, FL) [2]",~5 µM
B8,Kd,"CtBP1(WT, FL) [5]",5.53 µM
same,stoichiometry N,"CtBP1(WT, FL) [5]",0.785
B9,Kd,"CtBP1(WT, FL) [3]",3.9 µM
same,stoichiometry N,"CtBP1(WT, FL) [3]",0.84
B10,Kd,"CtBP1(WT, FL) [3]",5.5 µM
same,stoichiometry N,"CtBP1(WT, FL) [3]",0.78
B11,Kd,"CtBP1(WT, FL) [2]",~5 µM
B12,Kd,"CtBP1(WT, FL) [3]",1.5 µM
same,stoichiometry N,"CtBP1(WT, FL) [3]",0.32
B13,binding result,"CtBP1(WT, FL) [7]",binds
B14,binding result,"CtBP1(WT, FL) [7]",binds
B15,Kd,"CtBP1(WT, FL) [3]",0.8 µM
same,stoichiometry N,"CtBP1(WT, FL) [3]",0.41
same,Kd,CtBP1(K46W) [4],7.2 µM
same,stoichiometry N,CtBP1(K46W) [4],0.29
